62 molecules from patent US20110123544A1 (published 2011) can be followed below.

The target of experiment [1] is T1, recombinant human interleukin 12 (p40/p35 heterodimer) (human, UniProt P29460 23-328; P29459 23-219).
T1 chain 1: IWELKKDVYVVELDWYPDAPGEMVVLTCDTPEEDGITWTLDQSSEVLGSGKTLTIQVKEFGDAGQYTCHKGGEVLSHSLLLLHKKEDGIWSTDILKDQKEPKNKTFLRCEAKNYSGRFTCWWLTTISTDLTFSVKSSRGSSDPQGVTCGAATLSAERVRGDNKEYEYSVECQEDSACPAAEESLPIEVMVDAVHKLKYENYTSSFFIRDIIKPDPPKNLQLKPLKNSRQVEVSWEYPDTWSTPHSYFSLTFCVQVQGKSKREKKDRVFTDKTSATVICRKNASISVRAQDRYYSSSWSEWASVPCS
T1 chain 2: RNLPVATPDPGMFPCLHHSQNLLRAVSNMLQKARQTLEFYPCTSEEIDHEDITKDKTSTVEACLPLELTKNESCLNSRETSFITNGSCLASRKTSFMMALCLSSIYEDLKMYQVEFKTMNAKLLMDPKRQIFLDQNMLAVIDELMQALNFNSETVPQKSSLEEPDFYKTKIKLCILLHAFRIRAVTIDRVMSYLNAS
Put plainly: BIAcore. A general note: Surface plasmon resonance follows binding to a sensor surface in real time, without labels.

For experiment [2], the target named is T1, recombinant human interleukin 12 …. The experiment in a line: BIAcore.

Where two headings read alike, the source gives them in different places.

Regarding FIKYDGSNKYYADSVKG [Y61 H52 K], the off-rate (koff) (as a rule, the first-order rate constant of dissociation) in experiment [1] turned out to be 0.000262 s⁻¹. Turning to FILYDGSNKYYADSVKG [Y61 H52 L], the koff in experiment [1] stood at 0.000347 s⁻¹. Consider FIRYYGSNKYYADSVKG [Y61 H53 Y], for which, in experiment [1], the koff worked out at 0.000611 s⁻¹. Still for that read-out and setting: the figure for FIRYDYSNKYYADSVKG [Y61 H54 Y] is 0.000646 s⁻¹. With FIRYRGSNKYYADSVKG [Y61 H53 R], the koff in experiment [1] is 0.00167 s⁻¹. Regarding FIRYNGSNKYYADSVKG [Y61 H53 N], in experiment [1], the koff amounted to 0.000727 s⁻¹. Turning to FTFVSYGMH [Y61 H30 V], the koff in experiment [2] is 0.000399 s⁻¹. FIVYDGSNKYYADSVKG [Y61 H52 V]: the koff in experiment [1] was found to be 0.000317 s⁻¹. Consider FIRYDVSNKYYADSVKG [Y61 H54 V], for which the koff in experiment [1] turned out to be 0.000435 s⁻¹.

Take FTFSSYDMH [Y61 H33 D]: the off-rate (koff) in experiment [2] is 0.00152 s⁻¹. In the case of FIHYDGSNKYYADSVKG [Y61 H52 H], the off-rate constant (koff) in experiment [1] came to 0.000407 s⁻¹.

On to LIRYDGSNKYYADSVKG [Y61 H50 L], for which, in experiment [1], the off-rate (koff) was determined as 0.00044 s⁻¹. Consider FTFSSTGMH [Y61 H32 T], for which the off-rate (koff) in experiment [2] was determined as 0.00148 s⁻¹.

FTFWSYGMH [Y61 H30 W]: the koff in experiment [2] turned out to be 0.000216 s⁻¹. Regarding FIRYFGSNKYYADSVKG [Y61 H53 F], the koff in experiment [1] was 0.00169 s⁻¹. In the case of FIEYDGSNKYYADSVKG [Y61 H52 E], the koff in experiment [1] came to 0.000318 s⁻¹. Regarding FTFSSYPMH [Y61 H33 P], the off-rate constant (koff) in experiment [2] is 0.0016 s⁻¹. As for FITYDGSNKYYADSVKG [Y61 H52 T], the dissociation rate constant (koff) in experiment [1] is 0.000374 s⁻¹. Regarding FTFSSYAMH [Y61 H33 A], the koff in experiment [2] stood at 0.000273 s⁻¹. In the case of FIRYEGSNKYYADSVKG [Y61 H53 E], the dissociation rate constant (koff) in experiment [1] worked out at 0.000399 s⁻¹. Still for that read-out and setting: the figure for FIRYDSSNKYYADSVKG [Y61 H54 S] is 0.000373 s⁻¹; for FIRYQGSNKYYADSVKG [Y61 H53 Q] it is 0.000792 s⁻¹; for FIRYKGSNKYYADSVKG [Y61 H53 K] it is 0.00158 s⁻¹.

Consider FIRYDQSNKYYADSVKG [Y61 H54 Q], for which the koff in experiment [1] came to 0.000316 s⁻¹. As to FIRYIGSNKYYADSVKG [Y61 H53 I], the off-rate constant (koff) in experiment [1] amounted to 0.000944 s⁻¹.

Turning to FIQYDGSNKYYADSVKG [Y61 H52 Q], in experiment [1], the koff was found to be 0.000285 s⁻¹.

On to FTFSSNGMH [Y61 H32 N], for which the dissociation rate constant (koff) in experiment [2] amounted to 0.00297 s⁻¹. Regarding FTFSSIGMH [Y61 H32 I], the dissociation rate constant (koff) in experiment [2] came out at 0.00161 s⁻¹. With YIRYDGSNKYYADSVKG [Y61 H50 Y], the koff in experiment [1] came to 0.00023 s⁻¹. In the case of FIRYVGSNKYYADSVKG [Y61 H53 V], the koff in experiment [1] worked out at 0.00044 s⁻¹. With FTFKSYGMH [Y61 H30 K], the koff in experiment [2] was 0.000225 s⁻¹. Take EIRYDGSNKYYADSVKG [Y61 H50 E]: the off-rate constant (koff) in experiment [1] amounted to 0.000347 s⁻¹. Same read-out and setting: the figure for FIRYSGSNKYYADSVKG [Y61 H53 S] is 0.000368 s⁻¹; for FIRYDDSNKYYADSVKG [Y61 H54 D] it is 0.000455 s⁻¹; for FIWYDGSNKYYADSVKG [Y61 H52 W] it is 0.000351 s⁻¹. Consider FTFSNYGMH [Y61 H31 N], for which, in experiment [2], the dissociation rate constant (koff) was 0.000191 s⁻¹.

As to FIRYDKSNKYYADSVKG [Y61 H54 K], the koff in experiment [1] is 0.000407 s⁻¹. Take KIRYDGSNKYYADSVKG [Y61 H50 K]: the off-rate (koff) in experiment [1] came to 0.000612 s⁻¹. The same measure, in the same setting: for CIRYDGSNKYYADSVKG [Y61 H50 C] the value was 0.000285 s⁻¹. Still for that read-out and setting: the figure for FIRYTGSNKYYADSVKG [Y61 H53 T] is 0.0005 s⁻¹.

As to FTFSSHGMH [Y61 H32 H], in experiment [2], the koff was 0.000461 s⁻¹.

For FIRYDTSNKYYADSVKG [Y61 H54 T], in experiment [1], the koff was found to be 0.000644 s⁻¹. Regarding NIRYDGSNKYYADSVKG [Y61 H50 N], the koff in experiment [1] was determined as 0.000344 s⁻¹. For the molecule FIAYDGSNKYYADSVKG [Y61 H52 A], the off-rate constant (koff) in experiment [1] came out at 0.000171 s⁻¹. With FTFTSYGMH [Y61 H30 T], the koff in experiment [2] turned out to be 0.00032 s⁻¹. On to FIRYDNSNKYYADSVKG [Y61 H54 N], for which the koff in experiment [1] worked out at 0.000447 s⁻¹. HIRYDGSNKYYADSVKG [Y61 H50 H]: the koff in experiment [1] is 0.000309 s⁻¹. For FIYYDGSNKYYADSVKG [Y61 H52 Y], the dissociation rate constant (koff) in experiment [1] came to 0.000298 s⁻¹. For FTFSIYGMH [Y61 H31 I], the off-rate constant (koff) in experiment [2] worked out at 0.000334 s⁻¹. Consider TIRYDGSNKYYADSVKG [Y61 H50 T], for which the off-rate constant (koff) in experiment [1] stood at 0.000205 s⁻¹. FTFSYYGMH [Y61 H31 Y]: the koff in experiment [2] was determined as 0.000398 s⁻¹. Take FIRYAGSNKYYADSVKG [Y61 H53 A]: the off-rate (koff) in experiment [1] was 0.000404 s⁻¹. Take FTFGSYGMH [Y61 H30 G]: in experiment [2], the koff is 0.000233 s⁻¹.

Consider FIGYDGSNKYYADSVKG [Y61 H52 G], for which, in experiment [1], the off-rate constant (koff) was 0.000321 s⁻¹. Turning to FTFSSRGMH [Y61 H32 R], the off-rate (koff) in experiment [2] was determined as 0.00449 s⁻¹. With FIRYDESNKYYADSVKG [Y61 H54 E], the koff in experiment [1] came to 0.000351 s⁻¹.

Consider FTFISYGMH [Y61 H30 I], for which, in experiment [2], the koff was determined as 0.000207 s⁻¹. Consider FISYDGSNKYYADSVKG [Y61 H52 S], for which the dissociation rate constant (koff) in experiment [1] came out at 0.000292 s⁻¹. On the same count and under the same terms, for FIRYLGSNKYYADSVKG [Y61 H53 L] the value was 0.0011 s⁻¹; for FIRYDRSNKYYADSVKG [Y61 H54 R], 2.5e-05 s⁻¹; for QIRYDGSNKYYADSVKG [Y61 H50 Q], 0.00042 s⁻¹. For the molecule FTFSSYNMH [Y61 H33 N], the off-rate (koff) in experiment [2] was found to be 0.000308 s⁻¹.
